In experiment [1] the target is T1, human transglutaminase type 2 (TG2) (human, UniProt P21980 1-687).
T1 construct: Recombinant full-length human TG2 (Zedira; cat; T002 in the Biacore work); Also used here for the endogenous TG2 of HepG2 lysate and HK-2 cells; also called hTG2; rhTG2
T1 sequence: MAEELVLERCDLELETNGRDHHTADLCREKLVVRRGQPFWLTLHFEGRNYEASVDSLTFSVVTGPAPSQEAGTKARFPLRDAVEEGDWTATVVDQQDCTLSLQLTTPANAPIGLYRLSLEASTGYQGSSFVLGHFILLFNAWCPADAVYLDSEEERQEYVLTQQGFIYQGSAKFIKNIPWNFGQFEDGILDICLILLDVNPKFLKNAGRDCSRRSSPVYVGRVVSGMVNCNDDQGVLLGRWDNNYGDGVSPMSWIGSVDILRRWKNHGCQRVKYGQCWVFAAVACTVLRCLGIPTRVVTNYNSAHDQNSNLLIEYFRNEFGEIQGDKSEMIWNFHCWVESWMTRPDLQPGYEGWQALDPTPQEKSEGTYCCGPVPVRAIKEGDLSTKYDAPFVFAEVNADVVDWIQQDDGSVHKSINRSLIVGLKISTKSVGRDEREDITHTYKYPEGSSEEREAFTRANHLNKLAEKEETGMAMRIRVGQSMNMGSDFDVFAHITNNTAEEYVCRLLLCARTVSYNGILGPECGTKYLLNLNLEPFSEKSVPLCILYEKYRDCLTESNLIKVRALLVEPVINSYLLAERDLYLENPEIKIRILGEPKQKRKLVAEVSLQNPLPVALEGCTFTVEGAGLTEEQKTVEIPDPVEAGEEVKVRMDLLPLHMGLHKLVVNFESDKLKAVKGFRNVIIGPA
As to the kind of experiment: SPR (Biacore T200), antibody captured on anti-human IgG1 Fc chip, TG2 injected; -Ca2+. How it is done: (§1) Recombinant cynomolgus monkey TG2 was obtained from Trenzyme. Surface plasmon resonance (SPR) was measured on a Biacore T200 instrument (GE Healthcare). CM5 chips (GE Healthcare cat. no.: BR-1006-68) were coated with monoclonal mouse anti-human IgG1 (Fc) (MAH) antibody (GE Healthcare cat. no.: BR-1008-39) by amine-coupling as described in the manufacturers instructions. HBS-EP+ buffer (0.01 M HEPES, 0.15 M NaCl, 3 mM EDTA, 0.05% v/v Surfactant P20) and HBS-P+ buffer (0.01 M HEPES, 0.15 M NaCl, 0.05% Surfactant P20) were purchased from GE Healthcare as 10× stocks (cat. nos.: BR-1006-69 and BR-1006-71). Calcium Chloride solution was obtained from Sigma Aldrich (cat. no.:21115).
(§2) The method employed to determine the affinity of the anti-TG2 antibodies involved the capture of the chimeric or humanised antibodies on a MAH coated CM5 chip, followed by the injection of a series of TG2 samples in running buffer. The running buffer was 1×HBS-P+ containing 1 mM CaCl_2, or 1×HBS-EP+ for calcium-free experiments. Antibody capture was carried out for a contact time of 120 seconds at a flow rate of 10 μl/min resulting in the capture of approximately 40-80 RU. TG2 was injected over the immobilised antibody at concentrations ranging from 25 nM to 400 nM with a contact time up to 600 seconds at a flow rate of 30 μl/min. Dissociation of TG2 was typically measured for up to 5400 seconds (1.5 hours). Regeneration of the chip was then performed using 3 M MgCl_2, for a contact time of 60 seconds at a flow rate of […], followed by a 300 s stabilisation period before the next sample. For each of human and cynomolgus monkey TG2, at least 5 injections at a variety of concentrations were performed in at least two separate experiments.
(§3) Kinetic data were exported from the Biacore T200 Evaluation Software and analysed using GraphPad Prism, where the association phases and dissociation phases were analysed separately using a one phase association model and one-phase exponential decay model respectively. Association rates ($kon$) were calculated for each curve individually, and dissociation rates ($koff$) values from the long dissociation phase data collected. Where $koff$ values were calculated to be $<1\times10^-5$ s^-1, values were set at 1×10^-5 for analysis, as rates slower than this could not be estimated accurately.
(Surface plasmon resonance follows binding to a sensor surface in real time, without labels.)

Another experiment addresses T2, cynomolgus monkey TG2 (cynomolgus monkey, UniProt A0A2K5VXI8 1-687).
T2 construct: Bought recombinant protein; also called cynomogulus monkey TG2; cyano TG2
T2 sequence: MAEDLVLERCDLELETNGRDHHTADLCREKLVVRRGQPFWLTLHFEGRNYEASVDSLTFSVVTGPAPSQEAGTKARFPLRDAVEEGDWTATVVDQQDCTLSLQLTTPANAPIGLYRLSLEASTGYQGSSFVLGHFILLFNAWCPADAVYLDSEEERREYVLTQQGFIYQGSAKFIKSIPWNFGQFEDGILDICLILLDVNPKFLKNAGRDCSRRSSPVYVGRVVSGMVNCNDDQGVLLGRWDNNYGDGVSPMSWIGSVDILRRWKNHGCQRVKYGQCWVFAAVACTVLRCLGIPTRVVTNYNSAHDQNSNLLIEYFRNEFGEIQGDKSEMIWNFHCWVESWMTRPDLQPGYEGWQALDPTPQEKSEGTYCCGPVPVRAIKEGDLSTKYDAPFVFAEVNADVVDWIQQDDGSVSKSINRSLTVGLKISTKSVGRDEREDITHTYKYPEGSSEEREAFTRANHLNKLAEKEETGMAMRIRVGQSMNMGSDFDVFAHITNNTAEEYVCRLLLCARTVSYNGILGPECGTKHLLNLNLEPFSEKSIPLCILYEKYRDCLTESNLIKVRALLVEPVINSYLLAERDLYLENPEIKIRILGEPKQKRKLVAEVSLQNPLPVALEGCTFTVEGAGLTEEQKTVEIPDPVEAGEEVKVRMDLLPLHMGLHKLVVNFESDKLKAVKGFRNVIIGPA
The experiment is described as above. How it is done: as §1, §2, §3

B1: cBB001 chimeric antibody (murine BB7 variable regions) (antibody, human IgG1, V domains shown)
VH: AVQLVESGGGLVKPGGSLKLSCAASGIIFSSSAMSWVRQTPEKRLEWVATISSGGRSTYYPDSVKGRFTVSRDSAKNTLYLQMDSLRSEDTAIYYCAKLISPYWGQGTTLTVSS
VL: AIKMTQSPSSMYASLGERVIITCKASQDINSYLTWFQQKPGKSPKTLIYLTNRLMDGVPSRFSGSGSGQEFLLTISGLEHEDMGIYYCLQYVDFPYTFGGGTKLEIK
notes: also called chimeric BB7
A word on the Kd: it is the constant that tells how readily two partners part at equilibrium. For orientation: koff means the first-order rate constant of dissociation. As a reminder, the kon is the second-order rate constant of association. Consider B1, for which, in experiment [1], the Kd is < 0.07 nM, the koff is < 1e-05 s⁻¹ and the kon came out at 150000 M⁻¹ s⁻¹. Moreover, in the experiment with cynomolgus monkey TG2, the Kd is < 0.05 nM, the off-rate (koff) was < 1e-05 s⁻¹ and the kon stood at 190000 M⁻¹ s⁻¹.

B2: cDH001 chimeric antibody (murine DH2 variable regions) (antibody, human IgG1, V domains shown)
VH: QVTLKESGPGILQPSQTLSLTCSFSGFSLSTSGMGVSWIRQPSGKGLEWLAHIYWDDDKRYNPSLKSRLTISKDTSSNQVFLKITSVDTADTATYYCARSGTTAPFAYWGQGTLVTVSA
VL: QIVLTQSPAIMSASPGEKVTMTCSASSSVSYMYWYQQKPGSSPRLLIYDTSNLASGVPVRFSGSGSGTSYSLTISRMEAEDAATFYCQQWSSSPLTFGAGTKLELK
In experiment [1], B2 showed a Kd of 23 nM, a koff of 0.00049 s⁻¹ and a kon of 21000 M⁻¹ s⁻¹. In the experiment with cynomolgus monkey TG2, this molecule displayed a Kd of 2.4 nM, a koff of 6.3e-05 s⁻¹ and an on-rate constant (kon) of 26000 M⁻¹ s⁻¹.

B3: cDD9001 chimeric antibody (murine DD9 variable regions) (antibody, human IgG1, V domains shown)
VH: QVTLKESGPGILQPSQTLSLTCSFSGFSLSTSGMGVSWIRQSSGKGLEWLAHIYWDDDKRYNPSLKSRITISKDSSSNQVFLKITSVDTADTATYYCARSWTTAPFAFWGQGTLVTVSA
VL: QIVLTQSPAIMSASPGEKVTMTCSASSSVDYMYWYQQKPGSSPRLLIYDTSNLASGVPVRFSGSGSGTSYSLTISRMGAEDAATYYCQQWNSSPLTFGAGTKLELK
In experiment [1], B3 showed a Kd of 3.1 nM, a koff of 7.1e-05 s⁻¹ and a kon of 23000 M⁻¹ s⁻¹. In the experiment with cynomolgus monkey TG2, the Kd was 0.89 nM, the koff was determined as 4.1e-05 s⁻¹ and the kon came to 46000 M⁻¹ s⁻¹.

For the origin of these results see patent US10005846 (LIFEARC, dated 2018).
